Experimental findings from publication PMC3461054 are described below.

For orientation: stoichiometry N means a count of units in the complex or per binding partner.

The target in assay [1] is His-KLP64DS (6xHis-tagged KLP64D stalk) (Drosophila) (UniProt Q9VRK9). The assay can be described thus: SEC; affinity purified heterodimer on HiLoad 16/60 Superdex 75 pg in 20 mM Tris-Cl pH 7.5, 5 mM MgCl2, 500 mM NaCl, 2.5 mM DTT, 1 ml/min; fractions on SDS-PAGE, band intensities compared. Background: In gel filtration, larger molecules generally elute earlier.
Assay [2] addresses His-KLP68DS (6xHis-tagged KLP68D stalk) (Drosophila). The assay is described as above.

Take “KLP68DS (KLP68D stalk, untagged) (domain or fragment)”: the stoichiometry N in assay [1] was found to be 1.

B1: KLP64DS (KLP64D stalk, untagged) (domain or fragment)
chain: PKKKREKTDAEKEELAKRKNEHQKEIEHAKTEQETLRNKLVSLEGKILVGGENLLEKAQTQELLLEQSIAELEQHEKSEEALKQTLQQKATERIDIEERYSTLQDASTGITKKIHRVMQMLMGVKSELADQQQEHQREKEGIYENIRSLSRELALCELVLNSYVP
For B1, the stoichiometry N in assay [2] was 1.
